Columns and labels:
[1] = biological target: HIV-1 P24抗原(购自菲鹏) (HIV-1) (UniProt P04591); assay: indirect ELISA, P24 coated at 1 ug/ml, antibody at 125 ng/ml, goat anti-human IgG-HRP
[2] = biological target: HIV-1 P24抗原(购自菲鹏) (HIV-1) (UniProt P04591); assay: indirect ELISA, P24 coated at 1 ug/ml, antibody at 62.5 ng/ml, goat anti-human IgG-HRP
[3] = biological target: HIV-1 P24抗原(购自菲鹏) (HIV-1) (UniProt P04591); assay: indirect ELISA, P24 coated at 1 ug/ml, antibody at 31.25 ng/ml, goat anti-human IgG-HRP
[4] = biological target: HIV-1 P24抗原(购自菲鹏) (HIV-1) (UniProt P04591); assay: indirect ELISA, P24 coated at 1 ug/ml, antibody at 15.625 ng/ml, goat anti-human IgG-HRP
[5] = biological target: HIV-1 P24抗原(购自菲鹏) (HIV-1) (UniProt P04591); assay: indirect ELISA, P24 coated at 1 ug/ml, antibody at 250 ng/ml, goat anti-human IgG-HRP
[6] = biological target: HIV-1 P24抗原(购自菲鹏) (HIV-1) (UniProt P04591); assay: indirect ELISA, P24 coated at 3 ug/ml, supernatant of transiently transfected CHO cells diluted 1000-fold, goat anti-human IgG-HRP

Molecule	OD450 (ref 630 nm) [1]	OD450 (ref 630 nm) [2]	OD450 (ref 630 nm) [3]	OD450 (ref 630 nm) [4]	OD450 (ref 630 nm) [5]	OD450 (ref 630 nm) [6]
对照抗体 (antibody)	1.28 OD	0.756 OD	0.537 OD	0.337 OD	1.57 OD	
6F13RMb1 (antibody, human IgG1, kappa, V domains shown) VH: QVQLVQSGAEVKKPGSSVKVSCKASGGTFSSYAISWVRQAPGQGLEWMGGSIPIFGTTHYAQKFQGRVAIIVDESTSTSYMELSSLRSDDTAAYYCARAATAIFGVPRNNFYAMEVWGQGTTVTVSS VL: DIVMTQSPLSLSVTPGEPASISCRSSQSILHSNGYNYLDWYLQRPGQSPKLLIYIGSTRASGVPDRFSGSGSGTDFTLKISRVEAEDVGVYYCMQAVQTFFGPGTKVDLKR	1.42 OD	1.03 OD	0.673 OD	0.455 OD	1.52 OD	> 1 OD

Reference: patent publication CN116143909A
